Test results from US20160009813A1 (Memorial Sloan Kettering, published 2016).

Target: T1, human CD19 (human, UniProt P15391 20-556)
T1 sequence (looked up): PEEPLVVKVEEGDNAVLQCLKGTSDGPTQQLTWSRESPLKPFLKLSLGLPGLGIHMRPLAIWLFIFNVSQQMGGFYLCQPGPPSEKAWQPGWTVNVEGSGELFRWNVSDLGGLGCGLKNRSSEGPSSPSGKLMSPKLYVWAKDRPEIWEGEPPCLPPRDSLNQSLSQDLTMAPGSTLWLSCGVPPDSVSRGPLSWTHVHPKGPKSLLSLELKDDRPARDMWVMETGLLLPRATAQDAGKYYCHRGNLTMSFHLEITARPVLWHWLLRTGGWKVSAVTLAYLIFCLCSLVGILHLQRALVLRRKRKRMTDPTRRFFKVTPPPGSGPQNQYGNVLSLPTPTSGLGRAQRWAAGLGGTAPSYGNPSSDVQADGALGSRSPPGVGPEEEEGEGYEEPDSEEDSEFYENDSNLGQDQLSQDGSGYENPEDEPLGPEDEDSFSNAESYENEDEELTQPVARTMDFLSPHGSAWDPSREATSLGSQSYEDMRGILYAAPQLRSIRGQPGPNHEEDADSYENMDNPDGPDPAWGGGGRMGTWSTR
Test: cell-based or functional assay

expansion after one stimulation with 3T3-CD19 cells (mean): 20 fold
expansion after three weekly stimulations with 3T3-CD19 cells: ~1000 fold
B1: 1928z chimeric antigen receptor (CD19-specific second-generation CAR: SJ25C1-derived scFv, CD28, CD3 zeta) (receptor)
chain: EVKLQQSGAELVRPGSSVKISCKASGYAFSSYWMNWVKQRPGQGLEWIGQIYPGDGDTNYNGKFKGQATLTADKSSSTAYMQLSGLTSEDSAVYFCARKTISSVVDFYFDYWGQGTTVTVSSGGGGSGGGGSGGGGSDIELTQSPKFMSTSVGDRVSVTCKASQNVGTNVAWYQQKPGQSPKPLIYSATYRNSGVPDRFTGSGSGTDFTLTITNVQSKDLADYFCQQYNRYPYTSGGGTKLEIKRAAAIEVMYPPPYLDNEKSNGTIIHVKGKHLCPSPLFPGPSKPFWVLVVVGGVLACYSLLVTVAFIIFWVRSKRSRLLHSDYMNMTPRRPGPTRKHYQPYAPPRDFAAYRSRVKFSRSAEPPAYQQGQNQLYNELNLGRREEYDVLDKRRGRDPEMGGKPRRKNPQEGLYNELQKDKMAEAYSEIGMKGERRRGKGHDGLYQGLSTATKDTYDALHMQALPPR
